The nature of this series: Insulin lispro pharmacokinetics after subcutaneous Humalog in fasted pigs with diabetes (plasma lispro by ELISA). The series is classed as in vivo, pig. Conditions: pilot study, pigs with diabetes (n = 6), fasted 4–6 h, 4 U Humalog (100 U/ml) subcutaneous, plasma lispro by Insulin Lispro ELISA (Mercodia). How it is done: Insulin pharmacokinetics are more rapid in pigs than in humans. ^19 , ^20 , ^29 Thus, it was necessary to construct models for insulin action to be used in both open‐source systems, which model insulin action as an exponential curve. In AndroidAPS, the parameters defining the curve are time‐to‐peak action (TPA) and total duration of insulin action (DIA). ^23 Loop uses time‐to‐onset, TPA, and DIA. ^15 The pig pharmacokinetic curves for use in open‐source algorithms were determined from data obtained during a pilot study in pigs (n = 6). This experimental pharmacokinetic curve is consistent with pharmacokinetics observed in the pigs used in this study. ^20 Pigs were kept on fast 4–6 h and then injected subcutaneously with a 4 U dose of Humalog (100 U/ml, Eli Lilly). Before injection, baseline blood was sampled from an intravenous catheter line and measured using a handheld glucose monitor (Bayer Contour Next). After injection, blood was sampled from the intravenous catheter line every 5 min for the first 60 min, then every 30 min up to 4 h. Blood was collected in K2EDTA plasma tubes (Greiner‐BioOne) for analysis with ELISA. Plasma lispro concentrations were quantified using an Insulin Lispro ELISA kit (Mercodia). Pharmacodynamics were approximated by blood glucose measurements in a stable fasting state after 2–3 h (Figure 2A). […]

Turning to “Humalog: Commercial rapid-acting insulin lispro formulation (100 U/ml, Eli Lilly) injected subcutaneously in pigs”, the “near complete exposure duration” value is around 2 h. The “time of peak serum concentrations” value (sampled every 5 min for 60 min, then every 30 min up to 4 h) was in the range of 20 to 25 min.

Values taken from paper PMC8087942, “Full closed loop open‐source algorithm performance comparison in pigs with diabetes” (Clinical and Translational Medicine, 2021).
